This data set concerns K4 kissing-loop RNA reporter. Kind of data set: apparent KD of K4 kissing-loop reporter; higher = weaker reporter binding. The note with it: Eterna round: R107. Here is the method: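 RNA-MaP round R107: designed RNA switches with theophylline, tryptophan, arginine or FMN aptamers are transcribed on-chip within common flanks. They are titrated with a labelled K4 kissing-loop RNA reporter in RNA-MaP buffer (100 mM Tris pH 7.5, 80 mM KCl, 4 mM MgCl2), without ligand or with the indicated ligand. Median apparent KD per design.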

[1] abbreviates: input ligand: theophylline 20 uM.
Setting [2] is: input ligand: tryptophan 2.4 mM.

Consider 16 sequences from the supplement of paper PMC9170038.
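Also: bound reporter read as fluorescence of individual clusters on recovered sequencing chips by microscopy, with normalized cluster intensities fitted with a binding model.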

“UUAAUUAAGACGGCCGCCACUGAAUUAGAGUGAUGUUCUAAAAUUACUAAAUUAAAUUUAUUCAACAGGACCGGGUCAAUUAUUA [JR_SSTryptoB_Sub009]”: the “apparent KD of K4 kissing-loop reporter” value runs as follows: (input ligand: FMN 200 uM) 516 nM; (input ligand: arginine 13.2 mM) 435 nM; (input ligand: none) 560 nM; under setting [1], 527 nM; under setting [2], 524 nM.

Regarding “UUAGAGAUCUCAGGAUAUGAGUGAUGUUGAUAUCAAGAUCUGAGAUAGAAUUCUAUCUCAGAUCAAUCAGAAGGGAGAUCUCAUU [AK1.3 Exc FMN B]”, the “apparent KD of K4 kissing-loop reporter” value turned out to be 172 nM (input ligand: FMN 200 uM); 109 nM (input ligand: arginine 13.2 mM); 194 nM (input ligand: none); 411 nM under setting [1]; 263 nM under setting [2].

On to “UUAGGAGAGGGAAGGAGCGUGAAAGAGAAAGAAUAUAGUGAUGUUAUAUAGAAGAAAGAAUCACAGGUAGGUCGCCCGGAGGAGG [SSArgB.C]”, for which the “apparent KD of K4 kissing-loop reporter” value was found to be 672 nM (input ligand: FMN 200 uM); 520 nM (input ligand: arginine 13.2 mM); 632 nM (input ligand: none); 225 nM under setting [1]; 518 nM under setting [2].

Turning to “UUAGGAGUGGGAGGAUAUCCUAAUAUGGGUGAUGUUAGCGAUGUUGAAAGUGUAGUGAUGUUGUGCGGAGAAGGUCCAGUGUUGA [BDazzled - #13 - Exc. FMN B]”, the “apparent KD of K4 kissing-loop reporter” value (input ligand: FMN 200 uM) was found to be 196 nM; the “apparent KD of K4 kissing-loop reporter” value (input ligand: arginine 13.2 mM) is 126 nM; the “apparent KD of K4 kissing-loop reporter” value (input ligand: none) worked out at 178 nM; the “apparent KD of K4 kissing-loop reporter” value under setting [1] was 222 nM; the “apparent KD of K4 kissing-loop reporter” value under setting [2] was found to be 161 nM.

As for “UUAUAUAUAUCAGAUACCAGCAUAAUGGAAACAAAUUAUGUUAUGAGUGAUGUUCAUGUAUGCCCUUGGCAGCUGGUAUGGGUUU [KL-XTheo-B19]”, the “apparent KD of K4 kissing-loop reporter” value (input ligand: FMN 200 uM) was 467 nM; the “apparent KD of K4 kissing-loop reporter” value (input ligand: arginine 13.2 mM) amounted to 412 nM; the “apparent KD of K4 kissing-loop reporter” value (input ligand: none) stood at 433 nM; the “apparent KD of K4 kissing-loop reporter” value under setting [1] came to 487 nM; the “apparent KD of K4 kissing-loop reporter” value under setting [2] stood at 363 nM.

For “UUAUAUAUAUCAGAUACCAGUAUAAUGGAAACAAAUUAUGUUAUGAGUGAUGUUCAUGUAUGCCCUUGGCAGCUGGUAUGGGUUU [KL-XTheo-B20]”, the “apparent KD of K4 kissing-loop reporter” value reads like this: (input ligand: FMN 200 uM) 356 nM; (input ligand: arginine 13.2 mM) 322 nM; (input ligand: none) 362 nM; under setting [1], 439 nM; under setting [2], 311 nM.

As for “UUAUCUAUAUUCGAUACCAGUACCCUUUGUGUUAAUCCUUUUAUCAGUGAUGUUGAUGUGUACCCUUGGCAGCGGGUAUGGGUUU [KL-XTheo-B15]”, the “apparent KD of K4 kissing-loop reporter” value reads like this: (input ligand: FMN 200 uM) 420 nM; (input ligand: arginine 13.2 mM) 388 nM; (input ligand: none) 437 nM; under setting [1], 640 nM; under setting [2], 349 nM.

Regarding “UUCGAAAGUCGAAGGAGCGCUGUCGGUCAUAGACCAUAUCUGUAGUGAUGUUACAGAUGACAGCAGGUAGGUCGCGACAGAGACA [Arg B SS t18]”, the “apparent KD of K4 kissing-loop reporter” value reads like this: (input ligand: FMN 200 uM) 148 nM; (input ligand: arginine 13.2 mM) 120 nM; (input ligand: none) 127 nM; under setting [1], 144 nM; under setting [2], 144 nM.

With “UUGAGACGUCAAGGAUAUUCCGCGGAAGGGCGAGCGACCCAAGUGUGAGUGAUGUUCAGCAAGCCGGAAGAAGGUGAAUUUCACC [theeternabot_sameState_KL_FMN_B_26]”, the “apparent KD of K4 kissing-loop reporter” value came to 799 nM (input ligand: FMN 200 uM); 628 nM (input ligand: arginine 13.2 mM); 958 nM (input ligand: none); 1050 nM under setting [1]; 937 nM under setting [2].

On to “UUGAGCCGGACGGAAGUCCGGCUCUGCGAGCGAGGACCGGUACGGCCGCCACUCGGUGCAGUGAUGUUGCAUGGCCGCAAGGCCG [#2 Exclusion - Tryptophan A Attempt #4 (HarryS)]”, for which the “apparent KD of K4 kissing-loop reporter” value came out at 270 nM (input ligand: FMN 200 uM); 232 nM (input ligand: arginine 13.2 mM); 301 nM (input ligand: none); 208 nM under setting [1]; 324 nM under setting [2].

For the sequence “UUGGCUGGACGGGAUACCAGCCAAAUCGUGGGCUUGGGAUGUCUAAGAGCCAGUGAUGUUGGCCCUUGGCAGCCCUCCCAGCUUG [Xerirala]”, the “apparent KD of K4 kissing-loop reporter” value was 104 nM (input ligand: FMN 200 uM); 97.7 nM (input ligand: arginine 13.2 mM); 95.9 nM (input ligand: none); 75.5 nM under setting [1]; 113 nM under setting [2].

As to “UUGUAUAGUGGAAGGAGCGCGUGGGCGCAGUGAUGUUGCGCCCGACAUCACUUCAACUUAACGCAGGUAGGUCGCCAUUGUAAUG [Arginine B (Excl) V5]”, the “apparent KD of K4 kissing-loop reporter” value runs as follows: (input ligand: FMN 200 uM) 131 nM; (input ligand: arginine 13.2 mM) 88 nM; (input ligand: none) 113 nM; under setting [1], 104 nM; under setting [2], 101 nM.

For “UUUAAAUAUAGUGAUGUUAUAUAACAAUGACGAGGACCGGUACGGCCGCCACUCGAGAGAGAUAAUGGUCAUACAAAUGUAUGUC [AstrosSSTryA#7]”, the “apparent KD of K4 kissing-loop reporter” value (input ligand: FMN 200 uM) was 799 nM; the “apparent KD of K4 kissing-loop reporter” value (input ligand: arginine 13.2 mM) stood at 706 nM; the “apparent KD of K4 kissing-loop reporter” value (input ligand: none) turned out to be 1100 nM; the “apparent KD of K4 kissing-loop reporter” value under setting [1] was found to be 830 nM; the “apparent KD of K4 kissing-loop reporter” value under setting [2] came out at 564 nM.

Consider “UUUAACGAGUGAUGUUCGAAAAGUAAUGGUGAGGAUAUCGAUUUUUCGAGAAGGCACCUCGAAGUGAUACGAAAGUAUCGCUUCG [FMN A 4]”, for which the “apparent KD of K4 kissing-loop reporter” value runs as follows: (input ligand: FMN 200 uM) 173 nM; (input ligand: arginine 13.2 mM) 276 nM; (input ligand: none) 261 nM; under setting [1], 257 nM; under setting [2], 199 nM.

“UUUCCAGAUAAGUGGGAACACUCCAUAACAGAGGAUAUCAGAGCGCUGAGAAGGCUGUUUAUCAGUGAUGUUGAUAGUGUGGAGU [FMN A SS t2a]”: the “apparent KD of K4 kissing-loop reporter” value by setting is: (input ligand: FMN 200 uM) 171 nM; (input ligand: arginine 13.2 mM) 660 nM; (input ligand: none) 671 nM; under setting [1], 786 nM; under setting [2], 630 nM.

On to “UUUCCAGAUAAGUGGGAACGCUCCAUAACAGAGGAUAUCAGAGCGCUGAGAAGGCUGUUUUACAGUGAUGUUGUAAGUGUGGAGC [#10 K4 FMN A Same State]”, for which the “apparent KD of K4 kissing-loop reporter” value was 158 nM (input ligand: FMN 200 uM); 272 nM (input ligand: arginine 13.2 mM); 299 nM (input ligand: none); 282 nM under setting [1]; 252 nM under setting [2].
